Reference: patent publication US20050249698A1 (priority 2002, published 2005)

Assays:
Assay type in all cases: in vivo, Balb/c mice
[1] = test system: normal mice; assay: Test 1: peripheral blood cell counts, sOGP for 5 days then sOGP and rhG-CSF co-administered
Method: (§1) The clean grade of the Balb/c mice, weighed from 16 to 18 g, were used and randomly grouped, 7-10 mice per group. The tests were carried out in two batches.
(§2) The mice were divided into 4 groups.
(§3) The mice in each group were sacrificed on the 14th day.
(§4) The detection indexes were as follows: • (1) The counts of the peripheral blood leucocytes (WBC), the peripheral blood lymphocytes (LY), red blood cells (RBCs) and the change of platelet were determined for each group on the first day (no drug was administered), the 5th, 8th, 10th, 12th and 14th day. • (2) The counts of marrow karyotes (BMNC) of the mice in each group and the change of the classification of the marrow were determined on the 14th day. • (3) The sections of the sternum of the mice in each group were determined on the 14th day. • (4) The weights of the spleens of the mice in each group and the sections of the […] were determined on the 14th day.

[2] = test system: normal mice; assay: Test 2: marrow karyote count of the thighbone; details: 11th day, Test 2, simultaneous administration; x±SE
Method: as §1, §2
(§5) The mice in each group were sacrificed on the eleventh day.
(§6) The detection indexes were as follows: • (1) The counts of the peripheral blood leucocytes of the mice in each group were determined on the first day (no drug was administered), the 3rd, 5th, 7th, 9th and 11th day. • (2) The counts of marrow karyotes (BMNC) of the mice in each group were determined on the 11th day. • (3) The weights of the spleens of the mice in each group were determined on the 11th day.

[3] = test system: normal mice; assay: Test 1: marrow karyote count and classification of the thighbone; details: 14th day, x±SE
Method: as §1, §2, §3, §4

[4] = test system: normal mice; assay: Test 1: spleen weight
Method: as §1, §2, §3, §4

[5] = test system: normal mice; assay: Test 1: pathologic observation of breastbone (sternum) sections; details: 14th day, Test 1, FIG. 3
Method: as §1, §2, §3, §4

[6] = test system: normal mice; assay: Test 2: spleen weight
Method: as §1, §2, §5, §6

[7] = test system: normal mice; assay: Test 1: pathologic observation of spleen sections; details: 14th day, Test 1, FIG. 4
Method: as §1, §2, §3, §4

[8] = Test 1, sOGP 5 days then co-administration, x±SE

B1: rhG-CSF: commercially available recombinant human granulocyte colony stimulating factor (protein, UniProt P09919 31-207, looked up)
Granulocyte …: TPLGPASSLPQSFLLKCLEQVRKIQGDGAALQEKLVSECATYKLCHPEELVLLGHSLGIPWAPLSSCPSQALQLAGCLSQLHSGLFLYQGLLQALEGISPELGPTLDTLQLDVADFATTIWQQMEELGMAPALQPTQGAMPAFASAFQRRAGGVLVASHLQSFLEVSYRVLRHLAQP
[1]; [8]
  % leucocyte granulocyte: 70.39 ± 1.54%
  % leucocyte lymphocyte: 29.61 ± 1.54%
[1]; Test 1, x±SE
  leucocyte: 17.59 ± 1.59 ×10^6/ml
  platelet: 505.43 ± 35.34 ×10^6/ml
  red blood cell: 6.68 ± 0.10 ×10^9/ml
[2]
  karyote number/thighbone: 1.75 ± 0.12 ×10^7
[3]
  karyote/thighbone: 1.90 ± 0.13 ×10^7
[3]; thighbone marrow
  marrow: early erythroblast: 2.50 ± 0.33%
  marrow: intermediate erythroblast: 12.13 ± 1.92%
  marrow: late erythroblast: 16.00 ± 2.11%
  marrow: lymphocyte, plasma cell: 19.38 ± 2.00%
  marrow: matured granulocyte: 30.83 ± 2.77%
  marrow: myelocyte, metamyelocyte: 11.00 ± 1.00%
  marrow: primitive granulocyte: 0.63 ± 0.36%
  marrow: promyelocyte: 1.88 ± 0.44%
[4]; 14th day, Test 1, x±SE
  spleen weight: 0.252 ± 0.007 g
[4]; Test 1, Table 3
  spleen weight compared with the other two groups (control, sOGP): significantly higher
[5]
  pathologic observation of bone marrow cells in breastbone section: the proliferation of the bone marrow cells and the ratios among the three cell lines were normal
[6]; 11th day, Test 2, simultaneous administration, x±SE
  spleen weight: 0.244 ± 0.017 g
[6]; Test 2, Table 5
  spleen weight compared with the other two groups (control, sOGP): significantly higher
[7]
  spleen section: matured granulocytes as share of the granulocytes: about 60%
  spleen section: megakaryocyte cell line: moderately proliferated
  spleen section: red matter: proliferated moderately
  spleen section: white matter: lightly to moderately shrunk
